Where a chain is given by its changes, count along the chain named. Names may count otherwise.

Experiment [1] has as its target T1, recombinant human Nectin-4-His protein (human, UniProt Q96NY8 32-349).
T1 construct: Rescreening antigen and bought ELISA antigen are treated as one molecule; also called human Nectin-4-His tagged; Ag1; not shown: His tag
T1 sequence: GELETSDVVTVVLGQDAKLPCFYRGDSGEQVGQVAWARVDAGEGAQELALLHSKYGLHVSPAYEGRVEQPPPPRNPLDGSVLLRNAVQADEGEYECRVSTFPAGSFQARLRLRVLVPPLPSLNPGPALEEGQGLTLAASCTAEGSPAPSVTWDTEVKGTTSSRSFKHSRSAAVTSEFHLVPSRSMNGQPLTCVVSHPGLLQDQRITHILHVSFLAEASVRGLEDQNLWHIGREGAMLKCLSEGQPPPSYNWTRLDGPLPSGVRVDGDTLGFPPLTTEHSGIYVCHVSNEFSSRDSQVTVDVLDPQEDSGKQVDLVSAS
As to the kind of experiment: ELISA, recombinant antibody on coated antigen.

The target in experiment [2] is T2, cynomolgus monkey nectin-4 protein expressed on the surface of HEK 293 cells (cynomolgus monkey, UniProt A0A2K5WES1 32-510).
T2 construct: whole, on cells
T2 sequence: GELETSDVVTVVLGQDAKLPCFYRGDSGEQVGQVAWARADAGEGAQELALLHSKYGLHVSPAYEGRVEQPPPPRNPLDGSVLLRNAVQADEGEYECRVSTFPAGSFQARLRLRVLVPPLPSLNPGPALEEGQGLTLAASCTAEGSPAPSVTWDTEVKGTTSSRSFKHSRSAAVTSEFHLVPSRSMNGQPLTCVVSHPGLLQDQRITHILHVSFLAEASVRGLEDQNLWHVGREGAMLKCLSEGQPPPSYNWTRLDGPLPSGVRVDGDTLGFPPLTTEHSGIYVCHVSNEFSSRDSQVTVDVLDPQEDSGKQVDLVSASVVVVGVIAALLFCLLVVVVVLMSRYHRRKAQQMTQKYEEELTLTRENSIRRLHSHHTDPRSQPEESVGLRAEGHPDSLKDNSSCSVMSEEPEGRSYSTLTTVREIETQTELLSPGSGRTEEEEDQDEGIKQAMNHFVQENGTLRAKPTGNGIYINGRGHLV
As to the kind of experiment: flow cytometry, HEK 293 cells overexpressing the target. On the procedure:
(§1) Human embryonic kidney (HEK) 293 cells overexpressing human, cynomolgus monkey, rat, or mouse nectin-4 protein were produced. Cells were lifted with Versene to preserve cell surface proteins and were resuspended at 10e6/mL in PBS+2% FBS. 100 μl was added to a flow tube to test […]. Primary antibodies were diluted to […] and 10 μL was added for a total of 1 μg/test. Primary antibodies (or ADCs) were incubated with cells for 1 h on ice. Then, cells were washed 1× in 2 mL PBS+2% FBS and secondary antibody was added for detection. AF488-conjugated anti-human antibody from Jackson Immunoresearch, diluted according to the manufacturer's instructions+50% glycerol, was used at 1 μL/test-diluted to ⅕ the concentration in PBS+2% FBS and 5 μL were added per tube. The secondary reagent was incubated with the cells for 30 min, then cells were washed 2× in PBS+2% FBS and analyzed by flow cytometry on a BD FacsCanto instrument equipped with FACSDiva software.
(§2) Lead clones were tested for binding to human, cynomolgus monkey, rat, or mouse nectin-4 protein expressed on the surface of HEK 293 cells. Enfortumab was included as a positive control and an anti-FITC reactive antibody was included as a negative control.

The target of experiment [3] is T3, human nectin-4 protein expressed on the surface of cells (human, UniProt Q96NY8 32-510).
T3 construct: also called HEK 293 cells overexpressing human nectin-4; HekNectin4
T3 sequence: T2 sequence with A39V, V230I, T437A
Described as above. On the procedure:
as §1, §2

In experiment [4] the target is T4, rat nectin-4 protein expressed on the surface of HEK 293 cells (rat, UniProt D3ZET1 31-509).
T4 construct: whole, on cells
T4 sequence: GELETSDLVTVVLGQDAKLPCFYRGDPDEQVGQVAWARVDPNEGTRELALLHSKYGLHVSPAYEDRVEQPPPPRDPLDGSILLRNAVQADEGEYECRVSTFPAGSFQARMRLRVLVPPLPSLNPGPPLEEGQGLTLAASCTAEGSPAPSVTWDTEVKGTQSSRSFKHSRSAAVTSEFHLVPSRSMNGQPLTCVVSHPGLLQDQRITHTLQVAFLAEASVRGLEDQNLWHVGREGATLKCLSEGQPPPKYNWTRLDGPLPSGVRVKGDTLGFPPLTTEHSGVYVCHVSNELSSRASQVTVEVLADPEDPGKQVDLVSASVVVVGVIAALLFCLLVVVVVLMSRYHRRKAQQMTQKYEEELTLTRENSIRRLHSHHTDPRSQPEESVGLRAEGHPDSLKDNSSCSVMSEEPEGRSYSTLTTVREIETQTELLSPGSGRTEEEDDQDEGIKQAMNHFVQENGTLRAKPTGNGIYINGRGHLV
The description is as above. The protocol: as §1, §2

The target of experiment [5] is T5, mouse nectin-4 protein expressed on the surface of HEK 293 cells (mouse, UniProt Q8R007 31-508).
T5 construct: whole, on cells
T5 sequence (looked up): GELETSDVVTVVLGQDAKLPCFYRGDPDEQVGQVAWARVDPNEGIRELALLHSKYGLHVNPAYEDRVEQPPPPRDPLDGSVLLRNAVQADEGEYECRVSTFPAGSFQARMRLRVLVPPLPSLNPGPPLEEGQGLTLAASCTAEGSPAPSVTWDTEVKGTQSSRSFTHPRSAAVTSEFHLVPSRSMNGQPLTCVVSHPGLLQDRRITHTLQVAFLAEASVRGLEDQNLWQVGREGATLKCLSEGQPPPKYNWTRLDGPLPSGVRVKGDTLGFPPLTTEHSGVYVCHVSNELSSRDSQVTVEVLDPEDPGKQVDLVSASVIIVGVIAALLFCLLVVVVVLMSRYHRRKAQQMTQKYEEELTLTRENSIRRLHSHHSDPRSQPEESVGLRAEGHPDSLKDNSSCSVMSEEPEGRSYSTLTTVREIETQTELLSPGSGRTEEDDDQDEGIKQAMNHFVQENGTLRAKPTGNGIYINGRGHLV
Described as above. On the procedure: as §1, §2

Experiment [6] has as its target T3, human nectin-4 protein expressed on the …. Put plainly: cell-based or functional assay.
For experiment [7], the target named is T1, recombinant human Nectin-4-His protein. Put plainly: ELISA, hybridoma supernatant.
Experiment [8] has as its target T6, cynomolgus Nectin-4 His tagged (cynomolgus, UniProt A0A2K5WES1 32-349).
T6 construct: also called Ag2
T6 sequence: T1 sequence with V39A, I230V
As to the kind of experiment: ELISA, hybridoma supernatant.

Experiment [9] has as its target T1, recombinant human Nectin-4-His protein. Put plainly: ELISA, coated antigen.
The target in experiment [10] is T3, human nectin-4 protein expressed on the …. As to the kind of experiment: cell-based or functional assay. The source holds these as a separate data set.

B1: Nectin-4 Hybridoma 6C8H/6C8L (recombinant chimeric antibody) (antibody, V domains shown)
VH: QVQLKQSGPGLVQPSQSLSITCTVSGFSLSTYGVHWVRQSPGKGLEWLGVIWSGGSTDYNAAFISRLTISKDNSKSQIFFKMNSLQADDTAIYYCARMMSWYFDVWGTGTTVTVSS
VL: DIVMTQSQKFMSTSVGDRVSVTCKASQNVVTNVAWYQQKPGQSPKALIYSASYRYSGVPDRFTGSGSGTDFTLTISNVQSEDLAEYFCQQYNSYPLTFGAGTKLELK
With B1, the EC50 in experiment [1] was found to be 0.239 nM. The Flow data in [2] amounted to 11400; in [3], 10200; in experiment [4], 8920; in experiment [5], 194. In experiment [6], the “IC50, in vitro potency, HEK Cells + Nectin-4” value (“IC50, in vitro potency” for short) stood at 0.573 nM.

B2: Nectin-4 3C12H/3C12L (recombinant chimeric antibody) (antibody, V domains shown)
VH: B1 VH with S30T, S56N, T68S, I78V, M99T, S100H
VL: B1 VL with S14T, V21I, N32A, A46L, Y53N, S56T, N77Y, V78M, E85D, N92S
Consider B2, for which, in [1], the EC50 turned out to be 0.282 nM. Besides, the Flow data was 10600 in [2], 8370 in experiment [3], 5060 in experiment [4] and 328 in experiment [5]. In [6], the “IC50, in vitro potency” value stood at 0.919 nM.

B3: Nectin-4 12E11H/12E11L (recombinant chimeric antibody) (antibody, V domains shown)
VH: B1 VH with S30T, Y59C, A61G, T68S, S70I, I78V, M99T, S100H
VL: B1 VL with S14T, V21I, V30N, N32A, A46L, S56T, V78M, E85D, N92S, S93N
notes: also called parental 12E11 clone
On to B3, for which the EC50 in [1] is 0.252 nM. Besides, the Flow data in experiment [2] stood at 10400; in experiment [3], 8620; in experiment [4], 1900; in experiment [5] it was 230. For the same molecule, in experiment [6], the “IC50, in vitro potency” value amounted to 0.987 nM.

B4: Nectin-4 7 E8H/7 E8L (recombinant chimeric antibody) (antibody, V domains shown)
VH: B1 VH with S30A, T68S, I78V, M98N, M99S, S100H
VL: B1 VL with N77H, Q89H, S93N, L96Y, A100G, L106I
As for B4, the 50% effective concentration (EC50) in experiment [1] is 0.361 nM. For the same molecule, the Flow data in experiment [2] came to 10400; in [3] it was 9200; in experiment [4], 5970; in [5], 279. Also, in experiment [6], the “IC50, in vitro potency” value is 0.89 nM.

B5: Nectin-4 7H10H/7H10L (recombinant chimeric antibody) (antibody, V domains shown)
VH: QVQLQQPGAELVKPGASVKLSCKASGYTFTTYWMHWVKQRPGRGLEWIGGIDPYGAHIKYNEMFKTKATLTVDKPSSTAYMQLSSLTSEDSAVYYCARGDYSNWWWTYWGQGTLVTVSA
VL: DIVMTQSQKFMSTTVGDRVSITCKASQNVGTAVAWYQQIPGQSPKLLIYSASNRYTGVPDRFTGSGSGTDFTLTITNMQSEDLADYFCQHYSSYPWTFGGGTKLEIK
In the case of B5, the concentration for a half-maximal effect (EC50) in experiment [1] came out at 0.21 nM. The Flow data worked out at 14100 in [2] and 12300 in experiment [3]. In experiment [6], the “IC50, in vitro potency” value was found to be 0.549 nM.

B6: Nectin-4 7H10H/7H10L (hybridoma supernatant) (antibody, V domains shown)
VH: B5 VH
VL: B5 VL
notes: Mouse antibody in hybridoma supernatant
For B6, the ELISA signal in [7] was 3.26; in experiment [8] it was 3.49.

B7: Nectin-4 5D9H/5D9L (recombinant chimeric antibody) (antibody, V domains shown)
VH: QVQLKQSGPGLVQPSQSLSITCTVSGFSLTNYGVHWVRQSPGKGLEWLGVIWSGGSTDYNAAFVSRLSISRDNSKSQVFFKMNSLQADDTAIYYCARSGKWYYFDYWGQGTTLTVSS
VL: DIQMTQSPASLSVSVGETVTITCRASENIYSNLAWYQQKQGKSPQLLVYAATNLADGVPSRFSGSGSGTQYSLKINSLQSEDFGSYYCQHFWGTPTFGGGTKLEIK
notes: also called Nectin-4 5D9 chimeric mAb
Take B7: the half-maximal effective concentration (EC50) in experiment [1] is 0.192 nM; in experiment [9], 0.191 nM. Moreover, the Flow data in [2] worked out at 12600; in experiment [3] it was 11200; in experiment [4], 2140; in experiment [5] it was 189. Moreover, the “IC50, in vitro potency” value in [6] was 0.446 nM. In addition, in [10], the “Cell kill IC50, HekNectin4” value came to 0.207 nM. Besides, the “Cell kill IC50, MDA-MB468” value in experiment [10] is 1.31 nM. For the same molecule, the “Cell kill IC50, SKBR3” value in experiment [10] stood at 8.47 nM.

These data come from patent publication US20250101098A1 (R P SCHERER TECHNOLOGIES, published 2025).
